Reference: patent US5453371

Molecular target: 4-phenylazo-benzyloxycarbonyl-L-Pro-Leu-Gly-L-Pro-D-Arg.HCl

## Achromobacter collagenase gene product of Vibrio alginolyticus produced in recombinant Escherichia coli JM109 (plasmid pHUC14 or pLCO-1) (enzyme)
  Collagenase activity: 189 U
